This series in a line: SPR membrane binding to POPC/POPS/PI(4,5)P2 vesicles. The following applies: SPR; for affinity for POPC/POPS/PI(4,5)P2 (77:20:3) relative to WT: Kd comparison, in words; for Kd: L1 chip, 23 °C, 20 mM Tris, pH 7.4, 0.16 M NaCl, POPC/POPS/PI(4,5)P2 (77:20:3), average ±S.D., n = 3, read-out: Kd for lipid binding, PC/PS/PI(4,5)P2; for PI(4,5)P2 selectivity over POPC/POPS (80:20) / binding to POPC/POPS/PI(4,5)P2 (77:20:3): RU/RUmax, 100 nM protein. An excerpt:
It has been generally thought that Smad2 and Smad3 are targeted to the activated TGF-β signaling complex by direct interaction with TβRI ([1], [2]) or via SARA ([7]). However, it has been shown that many cytosolic proteins that are targeted to membrane proteins or membrane-anchored signaling complexes have affinity for membrane lipids ([14]), phosphoinositides (PtdInsPs) in particular, and that their membrane recruitment is mediated by coincident lipid–protein and protein–protein interactions ([15], [16]). For most of these proteins, their PtdInsP specificity directs their membrane targeting behaviors: e.g., PI(4,5)P2-specific proteins are recruited to PM where the highest concentration of PI(4,5)P2 is found, whereas PI(3)P-specific proteins are targeted to PI(3)P-rich EEs ([17], [18]). To resolve uncertainty about the functional location of the activated TGF-β signaling complex, we thus explored the possibility that lipid-binding activity of Smad2 may play a role in specific targeting of Smad2 to the active TGF-β receptor complex either at the PM or at EEs. Lipid-binding activity of Smad proteins has not been reported to date. We thus measured the binding of bacterially expressed Smad2 to large unilamellar vesicles (LUVs) containing various lipids by surface plasmon resonance (SPR) analysis ([19], [20]). Lipid selectivity determined by SPR analysis is typically reported as the relative resonance unit (RU) values for different lipids at a given protein concentration ([21], [22]). Although simple and intuitive, this type of analysis can sometimes yield misleading and erroneous results because some proteins show widely different RU values when bound to different lipid surfaces. Thus, a more reliable parameter that represents the fraction of the membrane bound protein molecules at a given protein concentration would be a normalized value of RU/RUmax where RUmax indicates the maximal RU value when a given lipid surface is saturated with the protein molecules. We thus estimated RUmax for different lipid species by employing the highest protein concentration experimentally feasible (e.g., 1 μM) and determined RU/RUmax for different lipids at the protein concentration that allows robust comparison (e.g., 100 nM). Once the lipid selectivity has been determined by this semiquantitative approach, we then rigorously determined and compared Kd values for selected lipids for more accurate quantitative determination of lipid selectivity.
Figure 1 Membrane-binding properties of Smad2 FL protein and MH2 domain determined by SPR analysis.A, PtdInsP selectivity of Smad2-FL determined using POPC/POPS/PtdInsP (77:20:3 in mole ratio) LUVs coated on the L1 sensor chip. The protein concentration was 100 nM. PIP3 indicates PI(3,4,5)P3. B, determination of Kd for binding of Smad2 FL to different LUVs. The protein concentration was varied from 0 to 500 nM. C, PI(4,5)P2 concentration dependence of membrane binding of Smad2-FL determined using POPC/POPS/PI(4,5)P2 (77-x:20:x, x = 0–5 mol%) LUVs. The protein concentration was 100 nM. D, PtdInsP selectivity of the Smad2 MH2 domain determined using POPC/POPS/PtdInsP (77:20:3 in mole ratio) LUVs. The protein concentration was 100 nM. Normalized RU values (RU/RUmax) were used for all figures but (C) for more accurate determination of PtdInsP selectivity. RUmax values determined for different vesicles at 1 μM Smad2 were: 280 ± 20 for POPC/POPS/PI(4,5)P2 (77:20:3), 370 ± 10 for POPC/POPS/PI(3,4)P2 (77:20:3), 400 ± 15 for POPC/POPS/PI(3,4,5)P3 (or PIP3) (77:20:3), 400 ± 20 for POPC/POPS/PI(3)P (77:20:3), and 380 ± 20 for POPC/POPS (80:20). Only the association phases of the sensorgrams are shown and used for further analysis. Each set of sensorgrams shown in A and D are representatives of >5 independent measurements. Data points shown in B and C are the average ±S.D. values from triplicate measurements. […]

“Also recorded” adds a separate entry of the source.

B1: Smad2-W422A: W422A mutant of full-length Smad2; specific PI(4,5)P2 binding-compromised (protein)
chain: MSSILPFTPPVVKRLLGWKKSAGGSGGAGGGEQNGQEEKWCEKAVKSLVKKLKKTGRLDELEKAITTQNCNTKCVTIPSTCSEIWGLSTANTVDQWDTTGLYSFSEQTRSLDGRLQVSHRKGLPHVIYCRLWRWPDLHSHHELKAIENCEYAFNLKKDEVCVNPYHYQRVETPVLPPVLVPRHTEILTELPPLDDYTHSIPENTNFPAGIEPQSNYIPETPPPGYISEDGETSDQQLNQSMDTGSPAELSPTTLSPVNHSLDLQPVTYSEPAFWCSIAYYELNQRVGETFHASQPSLTVDGFTDPSNSERFCLGLLSNVNRNATVEMTRRHIGRGVRLYYIGGEVFAECLSDSAIFVQSPNCNQRYGWHPATVCKIPPGCNLKIFNNQEFAALLAQSVNQGFEAVYQLTRMCTIRMSFVKGAGAEYRRQTVTSTPCWIELHLNGPLQWLDKVLTQMGSPSVRCSSMS
modifications: left off: His6, N-terminal, state not stated
For B1, the “affinity for POPC/POPS/PI(4,5)P2 (77:20:3) relative to WT” value is “three- to five-fold lower affinity”, the Kd was 470 ± 96 nM, the “PI(4,5)P2 selectivity over POPC/POPS (80:20)” value is “essentially no PI(4,5)P2 selectivity; also recorded: lost the PI(4,5)P2 selectivity” and the “binding to POPC/POPS/PI(4,5)P2 (77:20:3)” value is on record as “greatly reduced binding”.

B2: Smad2- R427A/R428A: double mutant of full-length Smad2; PI(4,5)P2 and TβRI binding-compromised (protein)
chain: MSSILPFTPPVVKRLLGWKKSAGGSGGAGGGEQNGQEEKWCEKAVKSLVKKLKKTGRLDELEKAITTQNCNTKCVTIPSTCSEIWGLSTANTVDQWDTTGLYSFSEQTRSLDGRLQVSHRKGLPHVIYCRLWRWPDLHSHHELKAIENCEYAFNLKKDEVCVNPYHYQRVETPVLPPVLVPRHTEILTELPPLDDYTHSIPENTNFPAGIEPQSNYIPETPPPGYISEDGETSDQQLNQSMDTGSPAELSPTTLSPVNHSLDLQPVTYSEPAFWCSIAYYELNQRVGETFHASQPSLTVDGFTDPSNSERFCLGLLSNVNRNATVEMTRRHIGRGVRLYYIGGEVFAECLSDSAIFVQSPNCNQRYGWHPATVCKIPPGCNLKIFNNQEFAALLAQSVNQGFEAVYQLTRMCTIRMSFVKGWGAEYAAQTVTSTPCWIELHLNGPLQWLDKVLTQMGSPSVRCSSMS
modifications: left off: His6, N-terminal, state not stated
For B2, the “affinity for POPC/POPS/PI(4,5)P2 (77:20:3) relative to WT” value is recorded as “three- to five-fold lower affinity”, the Kd came out at 340 ± 53 nM, the “PI(4,5)P2 selectivity over POPC/POPS (80:20)” value is reported as “essentially no PI(4,5)P2 selectivity; also recorded: lost the PI(4,5)P2 selectivity” and the “binding to POPC/POPS/PI(4,5)P2 (77:20:3)” value is “greatly reduced binding”.

B3: Smad2-K420A: K420A mutant of full-length Smad2; predominantly TβRI binding-compromised (protein)
chain: MSSILPFTPPVVKRLLGWKKSAGGSGGAGGGEQNGQEEKWCEKAVKSLVKKLKKTGRLDELEKAITTQNCNTKCVTIPSTCSEIWGLSTANTVDQWDTTGLYSFSEQTRSLDGRLQVSHRKGLPHVIYCRLWRWPDLHSHHELKAIENCEYAFNLKKDEVCVNPYHYQRVETPVLPPVLVPRHTEILTELPPLDDYTHSIPENTNFPAGIEPQSNYIPETPPPGYISEDGETSDQQLNQSMDTGSPAELSPTTLSPVNHSLDLQPVTYSEPAFWCSIAYYELNQRVGETFHASQPSLTVDGFTDPSNSERFCLGLLSNVNRNATVEMTRRHIGRGVRLYYIGGEVFAECLSDSAIFVQSPNCNQRYGWHPATVCKIPPGCNLKIFNNQEFAALLAQSVNQGFEAVYQLTRMCTIRMSFVAGWGAEYRRQTVTSTPCWIELHLNGPLQWLDKVLTQMGSPSVRCSSMS
modifications: left off: His6, N-terminal, state not stated
For B3, the Kd was 120 ± 12 nM; the “binding to POPC/POPS/PI(4,5)P2 (77:20:3)” value is “modestly and similarly reduced binding to both vesicles”. Moreover, the “lower affinity for POPC/POPS/PI(4,5)P2 (77:20:3) than WT” value (decrease in affinity vs WT) worked out at 20%.

B4: Smad2-Y426A: Y426A mutant of full-length Smad2; specific PI(4,5)P2 binding-compromised (protein)
chain: MSSILPFTPPVVKRLLGWKKSAGGSGGAGGGEQNGQEEKWCEKAVKSLVKKLKKTGRLDELEKAITTQNCNTKCVTIPSTCSEIWGLSTANTVDQWDTTGLYSFSEQTRSLDGRLQVSHRKGLPHVIYCRLWRWPDLHSHHELKAIENCEYAFNLKKDEVCVNPYHYQRVETPVLPPVLVPRHTEILTELPPLDDYTHSIPENTNFPAGIEPQSNYIPETPPPGYISEDGETSDQQLNQSMDTGSPAELSPTTLSPVNHSLDLQPVTYSEPAFWCSIAYYELNQRVGETFHASQPSLTVDGFTDPSNSERFCLGLLSNVNRNATVEMTRRHIGRGVRLYYIGGEVFAECLSDSAIFVQSPNCNQRYGWHPATVCKIPPGCNLKIFNNQEFAALLAQSVNQGFEAVYQLTRMCTIRMSFVKGWGAEARRQTVTSTPCWIELHLNGPLQWLDKVLTQMGSPSVRCSSMS
modifications: left off: His6, N-terminal, state not stated
As for B4, the “affinity for POPC/POPS/PI(4,5)P2 (77:20:3) relative to WT” value is “three- to five-fold lower affinity”, the Kd was 400 ± 44 nM, the “PI(4,5)P2 selectivity over POPC/POPS (80:20)” value is “essentially no PI(4,5)P2 selectivity; also recorded: lost the PI(4,5)P2 selectivity” and the “binding to POPC/POPS/PI(4,5)P2 (77:20:3)” value was “greatly reduced binding”.

B5: Smad2-E425K: charge-reversal mutant of full-length Smad2; PI(4,5)P2 and TβRI binding-enhanced (protein)
chain: MSSILPFTPPVVKRLLGWKKSAGGSGGAGGGEQNGQEEKWCEKAVKSLVKKLKKTGRLDELEKAITTQNCNTKCVTIPSTCSEIWGLSTANTVDQWDTTGLYSFSEQTRSLDGRLQVSHRKGLPHVIYCRLWRWPDLHSHHELKAIENCEYAFNLKKDEVCVNPYHYQRVETPVLPPVLVPRHTEILTELPPLDDYTHSIPENTNFPAGIEPQSNYIPETPPPGYISEDGETSDQQLNQSMDTGSPAELSPTTLSPVNHSLDLQPVTYSEPAFWCSIAYYELNQRVGETFHASQPSLTVDGFTDPSNSERFCLGLLSNVNRNATVEMTRRHIGRGVRLYYIGGEVFAECLSDSAIFVQSPNCNQRYGWHPATVCKIPPGCNLKIFNNQEFAALLAQSVNQGFEAVYQLTRMCTIRMSFVKGWGAKYRRQTVTSTPCWIELHLNGPLQWLDKVLTQMGSPSVRCSSMS
modifications: left off: His6, N-terminal, state not stated
In the case of B5, the Kd was 70 ± 7 nM, the “PI(4,5)P2 selectivity over POPC/POPS (80:20)” value is reported as “retaining the PI(4,5)P2 selectivity of WT” and the “binding to POPC/POPS/PI(4,5)P2 (77:20:3)” value is given as “modestly higher membrane binding than WT”. Besides, the “higher affinity for POPC/POPS/PI(4,5)P2 (77:20:3) than WT” value (increase in affinity vs WT) is reported as about 40%.

The values above are taken from paper PMC8567202, “Phosphoinositide-binding activity of Smad2 is essential for its function in TGF-β signaling” (The Journal of Biological Chemistry, 2021).
